# Results reported in publication PMC2722939.
# Tested on: O=P(O)(O)O[C@@H]1O[C@H](CO)[C@@H](O)[C@H](O)[C@H]1O
# Experiment: purified protein
# Details: 5 μM βG1,6bisP, 2 mM MgCl2, 50 mM K+HEPES pH 7.0, 25 °C
Substance,Km [µM],kcat [s⁻¹],kcat/Km [M⁻¹ s⁻¹]
L. lactis β-PGM (wild type) (Lactococcus lactis subsp. lactis Il1403),31 ± 2,175,6e+06
L. lactis β-PGM (wild type) (Lactococcus lactis subsp. lactis Il1403; H20A),41 ± 3,0.026,600
L. lactis β-PGM (wild type) (Lactococcus lactis subsp. lactis Il1403; H20N),170 ± 10,0.62,4000
L. lactis β-PGM (wild type) (Lactococcus lactis subsp. lactis Il1403; H20Q),45 ± 1,21.9,500000
L. lactis β-PGM (wild type) (Lactococcus lactis subsp. lactis Il1403; K76A),66 ± 1,1.56,20000
L. lactis β-PGM (wild type) (Lactococcus lactis subsp. lactis Il1403; T16P),4.8 ± 0.3,0.026,5000
